In the test the target is CASK_CAMK domain (residues 1-345) (Mus musculus) (UniProt O70589). Description: ITC. For orientation: ITC needs no label: the signal is the heat of the interaction.

The substance “Caskin1 CID L378T/R379H (domain or fragment)” came in with a fold decrease of the binding against wild-type Caskin1 of 40 fold.

As for “LiprinA2 CID G977E and H983R (domain or fragment)”, the fold increase in the binding affinity against wild-type LiprinA2 came to 9 fold.

The substance Caskin1 CID L378T (domain or fragment) registered a fold decrease of the interaction against wild-type Caskin1 of 9 fold.

Take reported Caskin1 peptide: the Kd worked out at 6.94 µM and the stoichiometry N came out at 1.

The Kd is the constant that tells how readily two partners part at equilibrium. Low values mean tighter binding, high ones weaker binding. A word on the stoichiometry N: it is a count of units in the complex or per binding partner.
